Results on ten molecules are retold here after patent publication US20250154284A1 (INMAGENE PTE, published 2025).

As a reminder, the Kd is the equilibrium constant for the complex coming apart. One may read the koff as the first-order rate constant of dissociation. Usually kon stands for the second-order rate constant of association.

Assay [1] has as its target T1, recombinant human MASP-2 protein (human, UniProt O00187 16-686). In words: cell-based or functional assay.
The target in assay [2] is T1, recombinant human MASP-2 protein. In words: BLI (Gator), antibody on Protein A biosensor, recombinant MASP-2 25-200 nM, 30 C. The method, then:
Recombinant MASP-2 protein was diluted with kinetics buffer to get a concentration gradient: 200 nM, 100 nM, 50 nM, 25 nM, and 0 nM (reference control). Antibodies were immobilized onto Protein A biosensor after balance. A baseline was detected for 60 seconds. Then, antibody-antigen association was detected for 120 seconds to obtain data for Kₒₙ, followed by detection of dissociation in kinetic buffer for 120 seconds to obtain data for Koff. The regeneration of biosensors was done in buffer 10 mM glycine, pH2.0. All the kinetics data were collected at 30° C. Data were acquired with Gator Bioanalysis System.

Assay [3] shares this target. Description: BLI (Gator), antibody on Protein A biosensor, human MASP-2, 30 C. Here is the method:
The assay was performed at 30° C. and the kinetics buffer was 1×PBS (136 mM NaCl, 8 mM […], 2 mM KH₂PO₄, 2.6 mM KCl) with 0.1% BSA and 0.005% Tween-20, pH7.4. Diluted antibodies and human MASP-2 were added to the corresponding well. After loading human MASP-2, biosensor detected the association and dissociation of antibodies. The regeneration of biosensors was in buffer 10 mM glycine, pH2.0.

T1 sequence (O00187 16-686): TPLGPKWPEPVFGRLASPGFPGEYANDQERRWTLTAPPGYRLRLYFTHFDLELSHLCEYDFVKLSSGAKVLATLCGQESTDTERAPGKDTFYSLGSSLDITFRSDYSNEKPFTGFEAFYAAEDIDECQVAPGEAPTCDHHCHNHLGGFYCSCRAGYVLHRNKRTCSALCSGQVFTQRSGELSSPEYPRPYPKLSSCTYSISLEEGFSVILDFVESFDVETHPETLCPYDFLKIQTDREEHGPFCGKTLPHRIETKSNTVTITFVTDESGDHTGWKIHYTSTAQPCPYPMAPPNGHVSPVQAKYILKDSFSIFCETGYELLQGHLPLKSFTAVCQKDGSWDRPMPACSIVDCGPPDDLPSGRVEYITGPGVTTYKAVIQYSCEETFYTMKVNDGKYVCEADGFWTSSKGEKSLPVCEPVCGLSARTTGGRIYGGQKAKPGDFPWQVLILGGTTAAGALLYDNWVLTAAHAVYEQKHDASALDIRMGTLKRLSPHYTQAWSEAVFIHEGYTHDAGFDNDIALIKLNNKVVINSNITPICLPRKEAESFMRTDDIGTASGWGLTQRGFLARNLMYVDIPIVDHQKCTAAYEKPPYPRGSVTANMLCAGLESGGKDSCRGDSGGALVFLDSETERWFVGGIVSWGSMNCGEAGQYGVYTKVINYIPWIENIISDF

B1: anti-MASP-2 antibody clone 3E10 (chimeric 3E10) (antibody, V domains shown)
VH: EVQLQQSGPGLVQSSQSLSITCTVSGFSLTTYGVHWVRLSPGKGLEWLGVIWKGGSTDYNAAFMSRLSITKDNSKSEVFFQMNSLQGDDSAIYYCVKTLELRRRDYYAMDYWGQGTSVTVSS
VL: DIVMTQTTSSLAVSAGEKVTMSCKSSQNILYSSNQKNLLAWYQQKPGQSPKLLIYWASTRESGVPNRFTGSGSGTDFSLTINSVQPEDLAVYYCHQYFSSYTFGGGTKLEMK
notes: Mouse variable regions; tested as a 'chimeric' antibody; also called 3E10-mus
On to B1, for which, in assay [1], the “IC50 of C3 activation (mannan-coated plate, human serum)” value is 4.14 ng/mL; the “IC50 of C4 activation (mannan-coated plate, human serum)” value is 3.6 ng/mL; the “IC50 of C4 activation in 5% human serum” value worked out at 8.26 ng/mL; the “IC50 of C4 activation in 10% human serum (methods say 25%)” value came out at 30.8 ng/mL. For the same molecule, in assay [1], the “IC50 of C4 activation in 50% human serum” value amounted to 67.3 ng/mL and the “IC50 of MAC activation (mannan-coated plate, human serum)” value turned out to be 3.27 ng/mL. In assay [2], the Kd was below 0.1 nM, the off-rate constant (koff) was below 1e-06 s⁻¹ and the association rate constant (kon) was found to be 29600 M⁻¹ s⁻¹. Further, in assay [3], the dissociation constant Kd came to 15.4 nM, the dissociation rate constant (koff) amounted to 0.00113 s⁻¹ and the kon came out at 73500 M⁻¹ s⁻¹.

B2: 3E10-hu-9 (antibody, V domains shown)
VH: QVQLVESGGGVVQPGRSLRLSCAASGFSLTTYGVHWVRQAPGKGLEWLGVIWKGGSTDYNAAFMSRLTISKDNSKSTVYIQMNSLRAEDTAVYYCAKTLELRRRDYYAMDYWGQGTLVTVSS
VL: DIVMTQSPDSLAVSLGERATINCKSSQNILYSSNQKNLLAWYQQKPGQPPKLLIYWASTRESGVPDRFSGSGSGTDFTLTISSLQAEDVAVYYCHQYFSSYTFGQGTKLEIK
notes: also called humanized 3E10 clone with 3E10-hu-VH-9
With B2, in assay [3], the dissociation constant (Kd) was determined as 12.8 nM, the koff is 0.000952 s⁻¹ and the kon is 74200 M⁻¹ s⁻¹.

B3: 3E10-hu-8 (antibody, V domains shown)
VH: QVQLVESGGGVVQPGRSLRLSCAASGFSLTTYGVHWVRQAPGKGLEWLGVIWKGGSTDYNAAFMSRLTISKDNSKNTVYIQMNSLRAEDTAVYYCAKTLELRRRDYYAMDYWGQGTLVTVSS
VL: DIVMTQSPDSLAVSLGERATINCKSSQNILYSSNQKNLLAWYQQKPGQPPKLLIYWASTRESGVPDRFSGSGSGTDFTLTISSLQAEDVAVYYCHQYFSSYTFGQGTKLEIK
notes: also called humanized 3E10 clone with 3E10-hu-VH-8
As to B3, in assay [3], the equilibrium dissociation constant (Kd) is 15.6 nM, the koff turned out to be 0.00107 s⁻¹ and the kon worked out at 68600 M⁻¹ s⁻¹.

B4: 3E10-hu-7-1 (antibody, V domains shown)
VH: QVQLVESGGGVVQPGRSLRLSCAASGFTLSTYGVHWVRQAPGKGLEWLGVIWKGGSTDYNAAFMSRLTISKDNSKSTVYIQMNSLRAEDTAVYYCAKTLELRRRDYYAMDYWGQGTLVTVSS
VL: DIVMTQSPDSLAVSLGERATINCKSSQNILYSSNQKNLLAWYQQKPGQPPKLLIYWASTRESGVPDRFSGSGSGTDFTLTISSLQAEDVAVYYCHQYFSSYTFGQGTKLEIK
notes: also called humanized 3E10 clone with 3E10-hu-VH-7-1
Consider B4, for which, in assay [3], the Kd turned out to be 17.3 nM, the koff was found to be 0.00114 s⁻¹ and the on-rate constant (kon) is 65700 M⁻¹ s⁻¹.

B5: 3E10-hu-11 (antibody, V domains shown)
VH: QVQLVESGGGVVQPGRSLRISCAASGFSLTTYGVHWVRQAPGKGLEWLGVIWKGGSTDYNAAFMSRLTISKDNSKSTVYIQMNSLRAEDTAVYYCVKTLELRRRDYYAMDYWGQGTLVTVSS
VL: DIVMTQSPDSLAVSLGERATINCKSSQNILYSSNQKNLLAWYQQKPGQPPKLLIYWASTRESGVPDRFSGSGSGTDFTLTISSLQAEDVAVYYCHQYFSSYTFGQGTKLEIK
notes: also called humanized 3E10 clone with 3E10-hu-VH-11
In the case of B5, in assay [3], the Kd came out at 13.7 nM, the koff amounted to 0.00107 s⁻¹ and the on-rate (kon) is 77700 M⁻¹ s⁻¹.

B6: 3E10-hu-6 (antibody, V domains shown)
VH: QVQLVESGGGVVQPGRSLRLSCAASGFTLSTYGVHWVRQAPGKGLEWLGVIWKGGSTDYNAAFMSRLTISKDNSKNTVYIQMNSLRAEDTAVYYCAKTLELRRRDYYAMDYWGQGTLVTVSS
VL: DIVMTQSPDSLAVSLGERATINCKSSQNILYSSNQKNLLAWYQQKPGQPPKLLIYWASTRESGVPDRFSGSGSGTDFTLTISSLQAEDVAVYYCHQYFSSYTFGQGTKLEIK
notes: also called humanized 3E10 clone with 3E10-hu-VH-6
B6: in assay [3], the Kd came out at 15.2 nM, the koff turned out to be 0.000985 s⁻¹ and the association rate constant (kon) was determined as 64600 M⁻¹ s⁻¹.

B7: 3E10-hu-12 (antibody, V domains shown)
VH: QVQLVESGGGVVQPGRSLRISCAVSGFSLTTYGVHWVRQAPGKGLEWLGVIWKGGSTDYNAAFMSRLTISKDNSKSTVYIQMNSLRAEDTAVYYCVKTLELRRRDYYAMDYWGQGTLVTVSS
VL: DIVMTQSPDSLAVSLGERATINCKSSQNILYSSNQKNLLAWYQQKPGQPPKLLIYWASTRESGVPDRFSGSGSGTDFTLTISSLQAEDVAVYYCHQYFSSYTFGQGTKLEIK
notes: also called humanized 3E10 clone with 3E10-hu-VH-12
As for B7, in assay [3], the Kd was determined as 14.3 nM, the koff amounted to 0.00103 s⁻¹ and the kon amounted to 72300 M⁻¹ s⁻¹.

B8: 3E10-hu-0 (antibody, V domains shown)
VH: QVQLVESGGGVVQPGRSLRLSCAASGFTFSTYGVHWVRQAPGKGLEWVAVIWKGGSTDYNAAFMSRFTISRDNSKNTIYIQMNSLRAEDTAVYYCAKTLELRRRDYYAMDYWGQGTLVTVSS
VL: DIVMTQSPDSLAVSLGERATINCKSSQNILYSSNQKNLLAWYQQKPGQPPKLLIYWASTRESGVPDRFSGSGSGTDFTLTISSLQAEDVAVYYCHQYFSSYTFGQGTKLEIK
notes: also called humanized 3E10 clone with 3E10-hu-VH-0
B8: in assay [3], the equilibrium dissociation constant (Kd) was found to be 26.3 nM, the koff came to 0.00102 s⁻¹ and the kon stood at 38700 M⁻¹ s⁻¹.

B9: 3E10-hu-7-2 (antibody, V domains shown)
VH: QVQLVESGGGVVQPGRSLRLSCAASGFTLSTYGVHWVRQAPGKGLEWLGVIWKGGSTDYNAAFMSRLTISKDNSKNTVYIQMNSLRAEDTAVYYCVKTLELRRRDYYAMDYWGQGTLVTVSS
VL: DIVMTQSPDSLAVSLGERATINCKSSQNILYSSNQKNLLAWYQQKPGQPPKLLIYWASTRESGVPDRFSGSGSGTDFTLTISSLQAEDVAVYYCHQYFSSYTFGQGTKLEIK
notes: also called humanized 3E10 clone with 3E10-hu-VH-7-2
For the molecule B9, in assay [3], the dissociation constant (Kd) worked out at 14.7 nM, the koff amounted to 0.00107 s⁻¹ and the on-rate constant (kon) was determined as 72900 M⁻¹ s⁻¹.

B10: 3E10-hu-10 (antibody, V domains shown)
VH: QVQLVESGGGVVQPGRSLRLSCAASGFSLTTYGVHWVRQAPGKGLEWLGVIWKGGSTDYNAAFMSRLTISKDNSKSTVYIQMNSLRAEDTAVYYCVKTLELRRRDYYAMDYWGQGTLVTVSS
VL: DIVMTQSPDSLAVSLGERATINCKSSQNILYSSNQKNLLAWYQQKPGQPPKLLIYWASTRESGVPDRFSGSGSGTDFTLTISSLQAEDVAVYYCHQYFSSYTFGQGTKLEIK
notes: also called humanized 3E10 clone with 3E10-hu-VH-10
In the case of B10, in assay [3], the Kd turned out to be 15.3 nM, the off-rate constant (koff) stood at 0.00111 s⁻¹ and the kon was 72800 M⁻¹ s⁻¹.
